Reference: the supplement of paper PMC9170038

System: MS2 coat protein
Experiment: apparent KD of MS2 coat protein; designed switch direction (-1 OFF switch, 1 ON switch): -1; higher = weaker reporter binding
Method in brief: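 Designed RNA switches with common flanks were transcribed on Illumina chips by stalled E. coli RNA polymerase and titrated with SNAP-549-labelled MS2 coat protein, from 0.7 or 1.5 nM doubling to 3 µM, in Tris-HCl pH 7.5 buffer with KCl, MgCl2, BSA, DTT, tRNA and Tween-20. Steps lasted 0.8–1.5 h (lowest) to 10–20 min (highest). Titrations ran without input, with 200 uM small-molecule ligand, or with an oligonucleotide input. Normalised cluster fluorescence was curve-fitted, and apparent KD is the per-design median over clusters.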

[1] = Eterna round: R95, input ligand: microRNA oligo, concentration not stated
[2] = Eterna round: R95, input ligand: FMN 200 uM
[3] = Eterna round: R95, input ligand: none
[4] = input ligand: microRNA oligo, concentration not stated

Sequence: AUACACUAAGUGAGGAUAUCGAUUUCUUUAAGGAUCGAGAAGGCACAUGAGGAUCACCCAUGUUUGACGUGAAU [JR_BMOE4_Sub096] (puzzle: Brourd's mod of Exclusion 4)
- apparent KD of MS2 coat protein [1]: 30.3 nM

Sequence: AUAAAUGAGGAGGAUAUCGAAUCGGAAACGAUUCGAGAAGGCCUAACAUGAGGAUCACCCAUGUUCCUUAAAUA [Mat - Exclusion 6 - Eli Mod - D64] (puzzle: Exclusion 6)
- apparent KD of MS2 coat protein [1]: 25.3 nM

Sequence: UAGUGACAUGAGGAUCACCCAUGUGAGGAUAUAGUAGGAGUAAAGAGGAAAGAGAGAACUAGAAGGCACAGUGA [JR_Exclu1_Sub031] (puzzle: Exclusion 1)
- apparent KD of MS2 coat protein [2]: 80 nM
- apparent KD of MS2 coat protein [1]: 48.4 nM
- apparent KD of MS2 coat protein [3]: 51.4 nM

Sequence: CUGAGUAUAGGAUAUACAUGAGGAUCACCCAUGUAGAAACAAGGGUCUUACAACUAAAGUAGAAGGAUAUUUGG [ExFusion 7 - Jieux - Exclusion 3] (Eterna round: R97, puzzle: Exclusion 3)
- apparent KD of MS2 coat protein (input ligand: FMN 200 uM): 112 nM
- apparent KD of MS2 coat protein (input ligand: none): 48.2 nM

Sequence: AAACGGGACUGAGGAUAUUCGUUCGAACACGAAGAAGAAGGUAGUGUCAGGGACAUGAGGAUCACCCAUGUGAACUCAGUCCCA [Erinle] (Eterna round: R96, puzzle: Exclusion NG 1)
- apparent KD of MS2 coat protein (input ligand: FMN 200 uM): 32.5 nM
- apparent KD of MS2 coat protein [4]: 21 nM
- apparent KD of MS2 coat protein (input ligand: none): 32.3 nM

Sequence: GUGUAGUGAGGAUAUACAUGAGGAUCACCCAUGUGAAUAAGAUAGAAUAAGAUAAAGUGUAGAAGGCAUAGUGU [Excluse me!!! 21 - Jieux - Exclusion 3] (puzzle: Exclusion 3)
- apparent KD of MS2 coat protein [1]: 39.3 nM

Sequence: CGGUGCUGAGGAUAUACAUGAGGAUCACCCAUGUGUUCUUGCUAGAAAACUGGCAGAUGUAGAAGGCGGUACUG [Mat - Exclusion 3 - Mod of JL D98] (puzzle: Exclusion 3)
- apparent KD of MS2 coat protein [2]: 285 nM
- apparent KD of MS2 coat protein [1]: 35.4 nM
- apparent KD of MS2 coat protein [3]: 36.6 nM

Sequence: AGGUGUAGAGGAUAUCCAUCCUCCCACAUGAGGAUCACCCAUGUCCUGGUCACCAAGGACGGAGAAGGCUACACCA [Omei Ex5 D21] (Eterna round: R97, puzzle: Exclusion 5)
- apparent KD of MS2 coat protein (input ligand: FMN 200 uM): 108 nM
- apparent KD of MS2 coat protein (input ligand: none): 142 nM

Sequence: AAGAAAGGUGACAUGGGUGACAUGAGGAUCACCCAUGUUACAAGCUUGUUGCUCGUCUUAUAAUUAACCCAUGUCAC [LRO Sensor-off var1-20 mod of Stov1-13-A1 by Brourd] (Eterna round: R97, puzzle: Sensor, turn-off variant 1)
- apparent KD of MS2 coat protein (input ligand: FMN 200 uM): 15.6 nM
- apparent KD of MS2 coat protein (input ligand: none): 15.6 nM

Sequence: AGUCCUGGAGUUAGGAUAUGGAGUAUCACUGCGCUUCAGAAGGGACUUGAGGAUCACCCAAGUAGCCGUGAGGG [salish99_bmod_ex4_r4_005] (Eterna round: R97, puzzle: Brourd's mod of Exclusion 4)
- apparent KD of MS2 coat protein (input ligand: FMN 200 uM): 98.5 nM
- apparent KD of MS2 coat protein (input ligand: none): 59.4 nM

Sequence: AAAUGCAAGUAAAGAUCCUACAUGAGGAUCACCCAUGUGCUCGUCUUAUAAAGUACUAUCACGAAAGUGAUAGUACA [Sensor 3, v1 - 21] (puzzle: Sensor v3, turn-off variant 1)
- apparent KD of MS2 coat protein [2]: 161 nM
- apparent KD of MS2 coat protein [1]: 30.2 nM
- apparent KD of MS2 coat protein [3]: 211 nM

Sequence: GAGUUAGCGUGAGGAAUAUACAUGAGGAUCACCCAUGUUAGCUAAUAUAUUGCUCGUCUUAUAACAACAAUUAACUG [Mod JX-Electric-eye] (Eterna round: R97, puzzle: Sensor, turn-off variant 1)
- apparent KD of MS2 coat protein (input ligand: FMN 200 uM): 14.2 nM
- apparent KD of MS2 coat protein (input ligand: none): 15.9 nM

Sequence: AAAGGGCAAGCAUGAUCCCACAUGAGGAUCACCCAUGUGUUCGUCUUAUAGGCUGCUGAGGCUUUUGCCUCGGUGGC [LRO Sensor-off var1-04 loose mod of D91 from Mat747] (Eterna round: R97, puzzle: Sensor, turn-off variant 1)
- apparent KD of MS2 coat protein (input ligand: FMN 200 uM): 484 nM
- apparent KD of MS2 coat protein (input ligand: none): 567 nM

Sequence: AAAUCGCAAGGAUAUCGUCAGUCUGACAUGAGGAUCACCCAUGUUAUCUUGGUAUCAGAGCGAGAAGGUGCAAAGU [Erbied] (Eterna round: R96, puzzle: Exclusion 5)
- apparent KD of MS2 coat protein (input ligand: FMN 200 uM): 10.8 nM
- apparent KD of MS2 coat protein [4]: 9.45 nM
- apparent KD of MS2 coat protein (input ligand: none): 14.6 nM

Sequence: GGUACUAACACGAAAGUGUUAGUACAAUAAGCUUGUGUUACAUGAGGAUCACCCAUGUCCUCAUAAGCUCGUCUUAU [Mat - Sensor v3 - Turn-off var 2 - D52] (puzzle: Sensor v3, turn-off variant 2)
- apparent KD of MS2 coat protein [2]: 112 nM
- apparent KD of MS2 coat protein [1]: 38.8 nM
- apparent KD of MS2 coat protein [3]: 126 nM

Sequence: AAUUAUUGAUGAGGAUAUUGUGGUGAAACACGACGAGAAGGCAUUUGUCACAUGAGGAUCACCCAUGUGAGCCUUGUGCAUAUA [Ex NG1 #63] (Eterna round: R96, puzzle: Exclusion NG 1)
- apparent KD of MS2 coat protein (input ligand: FMN 200 uM): 25.2 nM
- apparent KD of MS2 coat protein [4]: 18.7 nM
- apparent KD of MS2 coat protein (input ligand: none): 15.1 nM

Sequence: CUGAGGUAGCGGUCCUAUAACAUGAGGAUCACCCAUGUACCUUGCUUCGAGCUUUUAGCUCGUCUUAUGAUUCUCGG [Mat - Sensor v3 - turn-off var 1 - JL Mod - D37] (puzzle: Sensor v3, turn-off variant 1)
- apparent KD of MS2 coat protein [2]: 443 nM
- apparent KD of MS2 coat protein [1]: 502 nM
- apparent KD of MS2 coat protein [3]: 560 nM

Sequence: AGAUCCUGAGUCAGGAUAUAGAGACGGAAGUCGGGCUAGAAGGGACAUGAGGAUCACCCAUGUGGGUUCGUGCC [Lalaarveti] (puzzle: Brourd's mod of Exclusion 4)
- apparent KD of MS2 coat protein [2]: 33.5 nM
- apparent KD of MS2 coat protein [1]: 16.3 nM
- apparent KD of MS2 coat protein [3]: 23 nM

Sequence: ACCUCACAUGAGGAUCACCCAUGUCAGGAUAUCUAAUGUAGUCGCGUUCCCGACGCUAAGAGAAGGGACGUUGA [EX1 #36] (Eterna round: R97, puzzle: Exclusion 1)
- apparent KD of MS2 coat protein (input ligand: FMN 200 uM): 15.8 nM
- apparent KD of MS2 coat protein (input ligand: none): 15 nM

Sequence: ACAUGAGGAUCACCCAUGUAAUGAUGGGUACUAUAUUAUUCGUAGGAUAUCGUUGUUAGUUUGUUCGAGAAGGACGAUUGCCUU [JR_ExcNG3_Sub054] (Eterna round: R96, puzzle: Exclusion NG 3)
- apparent KD of MS2 coat protein (input ligand: FMN 200 uM): 612 nM
- apparent KD of MS2 coat protein [4]: 385 nM
- apparent KD of MS2 coat protein (input ligand: none): 520 nM

Sequence: GUCAGGUAUCGAGGAUAUGUGAAAGGAAGUGUAGCAGAAGGCGAGGGCUUGACAUGAGGAUCACCCAUGUGAAGUGAUUCGAAG [17th something] (Eterna round: R96, puzzle: Exclusion NG 1)
- apparent KD of MS2 coat protein (input ligand: FMN 200 uM): 76.4 nM
- apparent KD of MS2 coat protein [4]: 41 nM
- apparent KD of MS2 coat protein (input ligand: none): 64.2 nM

Sequence: CGAUAUUAUGUCAGGAUAUACAUUGCGAAAGCAAUGUAGAAGGGACAUGAGGAUCACCCAUGUUCCUACUAUCG [Omei A 1] (puzzle: Brourd's mod of Exclusion 4)
- apparent KD of MS2 coat protein [1]: 11.9 nM

Sequence: AGAUCACAUGAGGAUCACCCAUGUGAGGAUAUGCUUAAACCGUUGAACCCGGUUUGAGGCAGAAGGUGCGAGGG [Eternabot (L2) Solution 37] (Eterna round: R97, puzzle: Exclusion 1)
- apparent KD of MS2 coat protein (input ligand: FMN 200 uM): 29.9 nM
- apparent KD of MS2 coat protein (input ligand: none): 21.3 nM

Sequence: UAAGUUUAGGUAGGAUAUACUUUAAAUUUCUCUAUCCAUACAUGAGGAUCACCCAUGUUUACAUUGUAGAAGGACCACUAUGUU [JR_ExcNG2_Sub055] (Eterna round: R96, puzzle: Exclusion NG 2)
- apparent KD of MS2 coat protein [4]: 19.8 nM

Sequence: AAAUACCGGUGAGGAUAUUUUUAAUAGAGCUUUAUGAUAUACAUGAGGAUCACCCAUGUUACGUUAAAGAAGGCAUCGGAUAAA [Mat - Exclusion NG 2 - Mod of JL - D98] (Eterna round: R96, puzzle: Exclusion NG 2)
- apparent KD of MS2 coat protein [4]: 13.9 nM

Sequence: AAUAAUGGAGGAUAUACUAAAAUAUGAAUAAAAUAAAUAAAACAUGAGGAUCACCCAUGUAGAAGGCCAAAUAA [JMF's Not so obvious solution 2] (puzzle: Exclusion 2)
- apparent KD of MS2 coat protein [2]: 20.9 nM
- apparent KD of MS2 coat protein [1]: 22.7 nM
- apparent KD of MS2 coat protein [3]: 27.7 nM

Sequence: AGAAAUGCCCAUGGCCGCAAGCUUUUUACUUGUCUUACCACAUGAGGAUCACCCAUGUGACAUGGGCUCCUGAUAAU [Mabeonen] (puzzle: Sensor v3, turn-off variant 2)
- apparent KD of MS2 coat protein [2]: 15 nM
- apparent KD of MS2 coat protein [1]: 27.5 nM
- apparent KD of MS2 coat protein [3]: 13.4 nM

Sequence: GAAGCACAUGAGGAUCACCCAUGUAAGGAUAUACGUCUGGUCCGGCCGGACCAGUACCGUAGAAGGUACGUAAA [Excls-Ia] (puzzle: Exclusion 1)
- apparent KD of MS2 coat protein [1]: 18.1 nM

Sequence: AAAAUGUGAGGAUAUCACGGAGCCUCGCAUGACGAGACUCCUGAGAAGGCACAUGAGGAUCACCCAUGUCCUGU [EX4 A.10] (Eterna round: R97, puzzle: Exclusion 4)
- apparent KD of MS2 coat protein (input ligand: FMN 200 uM): 382 nM
- apparent KD of MS2 coat protein (input ligand: none): 57 nM

Sequence: AACAGUCUAGAGGAUAUGCUGGAUAAAUAUCUGGCAGAAGGCUGGACAUGAGGAUCACCCAUGUAAAUACUACC [Omei Ex6 A1b] (Eterna round: R97, puzzle: Exclusion 6)
- apparent KD of MS2 coat protein (input ligand: FMN 200 uM): 99.6 nM
- apparent KD of MS2 coat protein (input ligand: none): 38.6 nM

Sequence: GGAGGAACCGGAGGAUAUUGAUUUAAGCGGUUACGCAAGACAUGAGGAUCACCCAUGUGUCCGGACGAGAAGGCCGAAGAAGAA [ExNG2 3rd] (Eterna round: R96, puzzle: Exclusion NG 2)
- apparent KD of MS2 coat protein (input ligand: FMN 200 uM): 43.7 nM
- apparent KD of MS2 coat protein [4]: 30.6 nM
- apparent KD of MS2 coat protein (input ligand: none): 38.9 nM

Sequence: ACAUGAGGAUCACCCAUGUGACAAGAAUGGCUGAUAAAGAGACAGGAUAUAGGUGCAUAUCUAACCUAGAAGGGUCAUGACUGG [Deportation 74 - Jieux - Exclusion NG 3] (Eterna round: R96, puzzle: Exclusion NG 3)
- apparent KD of MS2 coat protein (input ligand: FMN 200 uM): 38.5 nM
- apparent KD of MS2 coat protein [4]: 28.3 nM
- apparent KD of MS2 coat protein (input ligand: none): 38.1 nM

Sequence: CGGUGCUCGUGGAAACAUGAGGAUCACCCAUGUAGAGUUAGCGAGGAUAUCGGUAACACAUAUCACGAGAAGGCGCGAACCUGA [Ex NG3 #30] (Eterna round: R96, puzzle: Exclusion NG 3)
- apparent KD of MS2 coat protein (input ligand: FMN 200 uM): 27.8 nM
- apparent KD of MS2 coat protein [4]: 11.7 nM
- apparent KD of MS2 coat protein (input ligand: none): 16.3 nM
